Experiment: soluble on expression in E. coli; label from the status in PepcDB or PDB records

Q: With “MHQAPATSTDENPPIESDVPMHHVYPSHHHHQHYQLPHLQQHPHPYSYPLYTFPYPIAPAFHQAQNPPMTSSVASGANGEHHHQPQQFFAPQYQVIPAGAIPVSTINIDPSQICPVDQMGMWTLPPPTGPNGMRYGIPIPAPLVPQITSSIMEASKMTSSTHTNATILNAMTASTSSNDSSSESGVSGVKEAKDEKKKSKIQADEKLRHEERQSTSDYTDDDPIPFTSRRSITGSVSYNYAEQIAERRRVEQQQEDRERQEMLEVERQRRVLEDRRNSEEEIRKQAELDRVEKDRLRMEQAAAAMEKARKEAELAKRARIYKHVFRGAEEEGGTEQLEELEQKILGVDIETGRRLLKEVSEVEWHKKQDEAEIRKNAPPQSDRSAHNLSSLSSGNQSARGRSSSISSPCKPDTSFTRNSIGRRSVRTTSREKQQESPKSSDQAVQHPLAASTPVRRPPRQPQALPTQDEIHVAREVPLANKSTTPSPTRSEMLRSAAIYCPINRDPLSQREELRAINRSTSNTGAYHNNNNNNNSKFEGAGVSRYNEITQTALFGPIATRNSIRRGTMRGTGLPSPPSVRVSTQNHQNQQRTSSFDESSSGGEEGGSISPDLGHKNFESPLPSSTENVHPASNSPPMKQIEGFEFKTPTRARSALSSPMSNFMNGGDNDSPISRPASRLMQRLEQKGTIRRDDEIISQEIRRVAETNLSRSPSLASLRGSMSNLAFRASQLNLAGTSGELPPNLTKFASVNSPARQSLSSMKKTTDRQAAVLERLGRLRESLHAGKNYTPPRNGISSSSRITTPAQTPPISPRPVM” as the sequence, how does the “soluble on expression in E. coli” value read?
A: not soluble

Q: With “MGSDKIHHHHHHMQPHPETTPVTSCTIIDATDRSIRQTLGETSTLARLIWVDAGLASPPLCSGLARCGRCRVRITEAAPAPHEDDREFFSAEDISAGWRLACRHAPAHGMVVHVPLPVMPHRHASRPKHPGPFRLAVDLGTTSLQWSLLAPDGTVAAQGSETNPQMGAGSDVMSRIAMARSDKGRGRLRELVLQALRRIVADVEGTPATADAVPPAGSGDEPTTACGYESRVEELCVAGNTAMTAILADESVEGLASAPYRLEMRGGTALALPGLPPAWIPPLPAPFVGGDLSAGYLAVLTDHAPAFPFVLADLGTNGEFVLALSPERTLVTSVALGPALEGIGLTFGTVAQRGAITSFTLTPGGLVPYVLDGGEADGISGTGYISLVHALLRAGLLDVDGRFIQSPSSPLAARMARSIVSHRGEPCLPLARGLYLAARDIEEILKVKAAFSLAFERLLATAQMPSHALSGIHLAGALGQHALPADLEGLGFIPPGSGGRTRAVGNTSLRGAELLLTSPPLRDTLNTWREGCTVVDLTAAPDFSAAFLRHMHFHF” as the sequence, how does the “soluble on expression in E. coli” value read?
A: not soluble

Q: With “MKITHCKLKKKVQKELLRFFVLEVTARSAADILGIHPNSAVLFYRKIRTVINHHLALAADEVFEGPVEPDESDFGGRRKGRRGRGAAGKVVVFGILKRNGRGYTVVVDNAKSETLLPVIKKKIMPDSIVYTDSLSSCDKLDVSGFIHYRINHSKEFADRQNHINGIENFWNQAKRVLRKYNGIDRKSFPLFLKECEFRFNFGTPSQQLKILRDWCGILEHHHHHH” as the sequence, how does the “soluble on expression in E. coli” value read?
A: soluble

Q: For “SLVPQGGPVLCRDEMEEWSASEAMLFEEALEKYGKDFNDIRQDFLPWKSLASIVQFYYMWKTTDRYIQQKRLKAAEAEG”, which “soluble on expression in E. coli” value is on record?
A: soluble

Q: With “MGSDKIHHHHHHMNARTLDPTERLIEKEPYYEPVGEEIALFEAAYRQRIPVLLKGPTGCGKTRFMEHMAWRLQRPLITVSCHDDLTASDLVGRYLVKGGETVWVDGPLTRAVRCGGICYLDEIVEARKDTMVVIHPLADDRRTLAMEKLGQMLEAPAEFCLAISYNPGYQSVLKDLKQSTRQRFVALEFDYPSAALEQRIVATESGVSDAVADKLVRFAQMTRNLKGSGLEEGASTRLLVHAGKLISDGISPVTACKSAVAQAVTDDADMLKAIQELSSSVF” as the sequence, how does the “soluble on expression in E. coli” value read?
A: not soluble

Q: With “MTEAQLTLPTTKLSPTQKTQFIKLEKKLRRNVGQAIAQYNMIEDGDKVMVCLSGGKDSYAMLSILMLLKESAPIHFDIIAVNLDQKQPGFPEHILPEYLDKLGIEYHIVEEDTYGIVKEKVPEGKTTCSLCSRLRRAVLYKAAKKIGATKIALGHHRDDMIETLMLNMFYGGKMKAMPAKLVSDNGEHVVIRPLAFCKESELIQYSELKHFPIIPCNL” as the sequence, how does the “soluble on expression in E. coli” value read?
A: not soluble

Q: Which “soluble on expression in E. coli” value does the source give for “STVTQKNLFPYGDYLNSSQLHMEPDEVDTLREGEDPADRMHPYLAIYDLQPLKAHPLVFAPGVPVIAQVVGTERYTSGSKVGTCTLYSVRLTHGDFTWTTKKKFRHFQELHRDLQRHKVLMSLLPLARFAVTHSPAREAAAEDIPSLPRGGSEGSARHTASKQKYLENYLNRLLTMSFYRNYHAMTEFLEVSQLSFIPDLGSKGLEGVIRKRSGGHRVPGFTFCGRDQVCYRWSKRWLVVKDSFLLYMRPETGAISFVQLFDPGFEVQVGKRSTETRYGVRIDTSHRSLILKCSSYRQARWWGQEITELAQGSGRDFLQLHQHDSYAPPRPGTLARW” here?
A: soluble

Q: For “MGSDKIHHHHHHMSDLINIQKKLLPDVLMIMQKRYQILRSIYFSEPVGRRTLAGMLGMSERVLRGEVEFLKAQGLVEIASSGMTVTKEGLVVFRDLESVMNQLSGLHSMEEQLAKKLQIKKCLVVQGDSDDTPWVREEMGRVAVEQLDMALTEKRNIVAVMGGSTMATVAEMMTTDFAKGRELLFVPGRGGIGEDLDNQANTICDKMATKTNTKHRVLYVPEQLGEEAYRSLLKEPAIQEGLRLVQSANAIILGIGDALAMAKRRHTGEDVLEKIIHRKAVGEAFGYYFDEQGEVVHKVPTFGLQFEDLAQIPHIIAVAGGTSKAKAIKSYMKSAPKNTILITDEGAAKSLLKGSNTLLK”, which “soluble on expression in E. coli” value is on record?
A: not soluble

Q: Which “soluble on expression in E. coli” value does the source give for “MTLYRLHEADLEIPDAWQDQSINIFKLPASGPAREASFVISRDASQGDAPFADYVARQLENAEKQLPGFKLHKRWDINIHGHAAVLLDYQWQREGRDLMLRQVFIERRPAVLITTLTTTPADLPHHEPAWKQAMQTLVPRPTPS” here?
A: soluble

Q: Which “soluble on expression in E. coli” value does the source give for “MSLQIQNLTKQFGESKAVNSLQISLPKGEVLGLLGRNGAGKTTTIKMLLGLLTPNEGSITWDGKTFGTSGVTIGYLPEERGLYTKSRVIDQLRYFGRLEGMAKKEVDLAIDHWLDRLAIPEYKFKTAGELSKGNQQKIQLIAALLHNPELLILDEPFSGLDPVNAGMLASIIEEQVQSGKTIILSSHRMEQVEAFCQHVCILKKGEAVVKGQLSDIKKEYGFRNLTIEDTEENEKGLQAIHVSYEKQQGLLYVKVQDDAEALNILQQLQEQGVTLRQFKMLEPTLNEIFVERAK” here?
A: not soluble

Q: With “MGLQTYNAKRSFDKTPEPKGTKAEKPGSSFVIQKHDARRLHYDFRLEMDGVLKSWAVTRGPSLDPEDKRLAVHVEDHPLSYGDFEGVIPKGQYGGGTVIVWDRGIWQPIGDAGKGYRKGHLEFELEGEKLKGRWHLVRMHGKPGESRENWLLIKGDDEEARHLEHHHHHH” as the sequence, how does the “soluble on expression in E. coli” value read?
A: soluble

Q: Which “soluble on expression in E. coli” value does the source give for “MMQTSRPTLQLLTASACYRDDPTALFHQLCGARPATLLLESAEVDNKQNLKSLLVIDSALRITALGQTVTLEALTRNGASLLPLLDASLPTEVDIQVRPNGRELTFPLINEVQDEDSRLQSLSVFDALRQLLTLVNTPLAEREALFLGGLFAYDLVAGFENLPPLRQDQRCPDFCFYLAETLLVLDHQHRSTRLQASLFTPDSSEYQRLATRLEQLSHQLQQAPHPIPATSVPEMALQCNQSDEEYCNVVSELQVAIREGEIFQVVPSRRFTLPCPSPLAAYQTLKDHNPSPYMFFMQDNDFSLFGASPESALKYDASNRQIEIYPIAGTRPRGRRPNGELDRDLDSRIELEMRTDHKEMAEHLMLVDLARNDLARICEPGSRYVADLTKVDRYSFVMHLVSRVIGTLRQDLDVLHAYQACMNMGTLSGAPKVRAMQLIASNEGSRRGSYGGAVGYFTAHGDLDTCIVIRSAYVEDGIATVQAGAGVVLDSVPQAEADETRNKARAVLRAIATAHHAKEIF” here?
A: not soluble

Q: With “MSWSLLSNIIKKFTLLHHFQPIGYIYKYIHICTLNHSLGSCVLQANYSIQNNLRSRTLFIQSEITYSHSLESTHFFGILIFFNIKFRVFNRINDPWTVLDNVPEVMFHDRFFINDFTFWVDVLQEAFRMRRWIFRFEQLVVNPSFSNSQWRIIF” as the sequence, how does the “soluble on expression in E. coli” value read?
A: soluble

Q: For “MIPATLHQLKVFETTARHGSFTKAAEELSITQPTVSGQVKQLTQTIGMPLFEHIGRKLYLTEAGEELLATCQEIFERLDNFEMKLAALQGAKRGQLRLGVITTTKYFVPRILGEFCQDYPDIDVSLQVINHQQLHDRMADNLDDLYILSNLPDDLDVHAQAFLDNPLVVVARADHPLAHQKNLPLSVLDGADFVTREMGSGTRLAVEKLLAEHDVSVQVRLELGSNEAIKQAIAGGLGISVLSRHTLITEPPHGELTVLDVEHFPIQRHWYVAYLAGKQLSVIAQAFLEFMVRSSQKTLENSGRRSLALQP”, which “soluble on expression in E. coli” value is on record?
A: not soluble

Q: For “MTGHWSYCDDDECGPNRWPTGQHQSPINIDLGEVERKDTHDGIKFVNYDHPIQGDIVNNGHSVQMTPELRSEHPEIYGGGLDQVYRLVQYHFHWGENDNEGSEHTLGGLRYPAELHLVHQGVEDPGKLAVVGVFLQLGKEGKALSNEERVLGKLCNPETVTRVENVRLSEKLPANKRSFWRYEGSLTTPPCSEIVTWTIFTEPVTVTHDQLELFRQVQDIEKRPIKKNYRPTQNLNDRKIVHIVAN”, which “soluble on expression in E. coli” value is on record?
A: not soluble

Q: For “SMLSAASRVVSRAAVHCALRSPPPEARALAMSRPPPPRVASVLGTMEMGRRMDAPASAAAVRAFLERGHTELDTAFMYSDGQSETILGGLGLGLGGGDCRVKIATKANPWDGKSLKPDSVRSQLETSLKRLQCPQVDLFYLHAPDHGTPVEETLHACQRLHQEGKFVELGLSNYASWEVAEICTLCKSNGWILPTVYQGMYNATTRQVETELFPCLRHFGLRFYAYNPLAGGLLTGKYKYEDKDGKQPVGRFFGNSWAETYRNRFWKEHHFEAIALVEKALQAAYGASAPSVTSAALRWMYHHSQLQGAHGDAVILGMSSLEQLEQNLAATEEGPLEPAVVDAFNQAWHLVAHECPNYFR”, which “soluble on expression in E. coli” value is on record?
A: soluble

Q: With “MIFNIQRYSTHDGPGIRTVVFLKGCSLGCRWCQNPESRARSEDLLYDSRLCLAGCELCQQAAPAVITRTLDGLIIHRQNVNDSHIAALRDCCPTTALTVCGEEKSVEEIMATVLRDKPFYDRSGGGITLSGGEPFMNPTLAQALFEASHQAGIHTAVETCLHVPWKYIEPSLPFVDLFLADLKHVDEAVFQQWTDGSARRVLDNLQRLAQAGKKMIIRVPLIQGFNASEADIAAITDFAADRLQVSEIHYLPYHTLGMNKYQLLSQPYTAPDKPLDAPELLVFAQDYAQSKGLTAILRG” as the sequence, how does the “soluble on expression in E. coli” value read?
A: not soluble

Q: With “GGGGSSGGSTGGGSGSGPVTIEIGSKGEELAFDKTELTVSAGQTVTIRFKNNSAVQQHNWILVKGGEAEAANIANAGLSAGPAANYLPADKSNIIAESPLANGNETVEVTFTAPAAGTYLYICTVPGHYPLMQGKLVVN” as the sequence, how does the “soluble on expression in E. coli” value read?
A: soluble

Q: For “MGHHHHHHSHMARKLKGKIGSKGLKGALLRHKAKVKLVRNIESKQKHELRKKNSSANNKTVKRNQEFQKLNQGKVMPFEKDETLMLCGEGDFSFARSIVEQNYIESDNLIITSYDNSVNELKLKYPHTFEENYQYLKDLNIPIFFQIDVTKLVKSFKISKNNTWFKIINRLSDHRWGNKPLQNIVFNFPHNGKGIKDQERNIREHQDLIFNFFQNSLQLFNLINTKIQNDTLRYTQGYDLNEDTPQAKKLTAEGYGNIILSLFDGEPYDSWQIKLLAKKNGLTLSRSSKFQWENFP”, which “soluble on expression in E. coli” value is on record?
A: soluble

Q: For “MGSSQSTPKVQDANADAERIRKAQHSMAAAGGGSQCPLTPEQRAAASGENCGAGGACPVGADKASINPLNNELEHPNQKPAPDQPFALPTKREKSTIPKAGTETETWTYPSPQMFWNAMLKKGWRWQDDSLSKSDMENIISIHNANNEEAWREVLKWENLLHPECAEPKLKSFKGDAKNLSPRARFRNLFLGYDLPFDRHDWIVDRCGTKQVQYVIDYYDGGAVDPSSKLFTILDVRPAVNDIGNIWDRMVVAYWRFKFETLGFTPSLPIPPTEGHNVNH”, which “soluble on expression in E. coli” value is on record?
A: not soluble
